These results are taken from paper PMC7143960, “Protein Engineering of a Pyridoxal-5′-Phosphate-Dependent L-Aspartate-α-Decarboxylase from Tribolium castaneum for β-Alanine Production” (Molecules, 2020).

Series [1] concerns N[C@@H](CC(=O)O)C(=O)O. Briefly: purified protein. The following applies: 0.1 M phosphate pH 7.0, 37 °C, L-aspartate 0.5-100 mM, apparent parameters. Format: biochemical, Tribolium castaneum.
Series [2] concerns the target T1, TcPanD (PLP-dependent L-aspartate-α-decarboxylase) (Tribolium castaneum, UniProt A7U8C7).
T1 sequence (A7U8C7 1-540): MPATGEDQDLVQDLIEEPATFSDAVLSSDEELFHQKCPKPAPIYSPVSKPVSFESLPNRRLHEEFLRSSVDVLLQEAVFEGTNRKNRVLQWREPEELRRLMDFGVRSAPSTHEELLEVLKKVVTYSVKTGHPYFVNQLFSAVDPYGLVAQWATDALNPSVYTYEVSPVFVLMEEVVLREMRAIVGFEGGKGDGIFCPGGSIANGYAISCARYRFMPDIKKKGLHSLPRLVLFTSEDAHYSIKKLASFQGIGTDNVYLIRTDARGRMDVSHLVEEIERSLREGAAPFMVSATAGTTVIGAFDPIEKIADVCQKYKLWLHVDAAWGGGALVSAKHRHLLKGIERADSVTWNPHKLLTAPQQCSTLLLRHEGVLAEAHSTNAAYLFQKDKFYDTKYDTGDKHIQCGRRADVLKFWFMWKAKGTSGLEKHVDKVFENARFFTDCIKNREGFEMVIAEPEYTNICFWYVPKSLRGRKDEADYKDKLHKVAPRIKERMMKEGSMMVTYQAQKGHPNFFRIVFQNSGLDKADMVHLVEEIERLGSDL
Briefly: enzyme activity versus added PLP. Conditions: 0.1 M phosphate pH 7.0, 37 °C, L-aspartate substrate. Format: biochemical.

Substrate in series [3]: N[C@@H](CC(=O)O)C(=O)O
Briefly: purified protein. The following applies: 0.1 M phosphate pH 7.0, 37 °C, L-aspartate 0.5-100 mM, apparent parameters.

On to “TcPanD (PLP-dependent L-aspartate-α-decarboxylase) (Tribolium castaneum; K305S/R98H)”, for which, in series [1], the Michaelis constant (Km) was 1230 µM, the Vmax worked out at 7.05 µmol/min/mg, the turnover number (kcat) came out at 7.64 s⁻¹ and the kcat/Km was determined as 6210 M⁻¹ s⁻¹.
`Cc1ncc(COP(=O)(O)O)c(C=O)c1O` [pyridoxal 5’-phosphate]: the “enzyme activity versus added PLP” value in series [2] was “the enzymatic activities of the two proteins reached the highest levels under the treatment”.

B1: TcPanD (PLP-dependent L-aspartate-α-decarboxylase) (Tribolium castaneum) (protein)
chain: MPATGEDQDLVQDLIEEPATFSDAVLSSDEELFHQKCPKPAPIYSPVSKPVSFESLPNRRLHEEFLRSSVDVLLQEAVFEGTNRKNRVLQWREPEELRRLMDFGVRSAPSTHEELLEVLKKVVTYSVKTGHPYFVNQLFSAVDPYGLVAQWATDALNPSVYTYEVSPVFVLMEEVVLREMRAIVGFEGGKGDGIFCPGGSIANGYAISCARYRFMPDIKKKGLHSLPRLVLFTSEDAHYSIKKLASFQGIGTDNVYLIRTDARGRMDVSHLVEEIERSLREGAAPFMVSATAGTTVIGAFDPIEKIADVCQKYKLWLHVDAAWGGGALVSAKHRHLLKGIERADSVTWNPHKLLTAPQQCSTLLLRHEGVLAEAHSTNAAYLFQKDKFYDTKYDTGDKHIQCGRRADVLKFWFMWKAKGTSGLEKHVDKVFENARFFTDCIKNREGFEMVIAEPEYTNICFWYVPKSLRGRKDEADYKDKLHKVAPRIKERMMKEGSMMVTYQAQKGHPNFFRIVFQNSGLDKADMVHLVEEIERLGSDL
With B1, in series [3], the Km was found to be 1350 µM, the Vmax came out at 2.88 µmol/min/mg, the kcat is 3.12 s⁻¹ and the kcat/Km is 2310 M⁻¹ s⁻¹.

As a reminder, the Km is the concentration of substrate that gives half-maximal velocity. One may read the Vmax as the top rate of the reaction or transport when substrate is in excess. In general, kcat refers to the number of substrate molecules converted per active site and unit of time at saturation. By kcat/Km is commonly meant the second-order rate constant that governs catalysis at low substrate concentration.
